{
  "source": "patent US20040072753",
  "key": {"[1]": {"test_system": "Aβ 1-40"}, "[2]": {"test_system": "Aβ 1-42"}, "[3]": {"test_system": "T1, Aβ 25-35", "T1 sequence": "GSNKGAIIGLM"}, "[4]": {"test_system": "T2, histone H1 peptide substrate PKTPKKAKKL", "T2 sequence": "PKTPKKAKKL"}},
  "data": [
    {"substance": "recombinant p34-cdc2/cyclin B1 (Promega)", "values": [
      {"measurement": "incorporation of 32P from γ32P-ATP", "setting": "[1]", "value": "Aβ 1-42, Aβ 1-40 and Aβ 25-35 incorporated 32P from γ32P-ATP"},
      {"measurement": "incorporation of 32P from γ32P-ATP", "setting": "[2]", "value": "Aβ 1-42, Aβ 1-40 and Aβ 25-35 incorporated 32P from γ32P-ATP"},
      {"measurement": "incorporation of 32P from γ32P-ATP", "setting": "[3]", "value": "Aβ 1-42, Aβ 1-40 and Aβ 25-35 incorporated 32P from γ32P-ATP"},
      {"measurement": "Michaelis constant (KM) for the phosphorylation", "setting": "[4]", "value": "a KM of 2.7 µM for the H1 peptide substrate"}
    ]}
  ]
}
